Data: US9951123B2, “Anti-LPS O11 antibody” (priority 2013, dated 2018)
In brackets after ≈: the same amount, converted by molar mass.

B1: No.76: mouse monoclonal anti-LPS O11 antibody prepared using pJON mIgG2a and pJON mIgκ; variable regions SEQ ID NO: 8 and 4 (antibody, V domains shown)
VH: MGWSCIILFLVAAATGVHSQVQLQQPGAELVKPGASVNLSCKSSGYTFTNYWINWVKQRPGQGLEWIGDIYPGTSTTNYNEKFKNKATLTVDTSSSTAYMQLSSLTSDDSAVYYCTRIYYDYDGYYFDYWGQGTTLTVSS
VL: MESQTLVFISILLWLYGADGNIVMTQSPKSMSMSVGERVTLSCKASENVGTSVSWYQEKPEQSPKLLIFGASNRYTGVPDRFTGSGSATDFTLTISSVQAEDLADYHCGQSYSYPYTFGGRTKLEIKRA
modifications: Heavy chain variable of No.76; Light chain variable of No.76
B2: #1G5: anti-LPS O11 monoclonal antibody prepared using pJON mIgG2a-hIgG1 and pJON mIgκ; variable regions SEQ ID NO: 16 and 12 (antibody, V domains shown)
VH: MGWSCIILFLVAAATGVHSQVQLQQPGAELVKPGASVKLSCKASGYTFTSYWINWVKQRPGQGLEWIGNIYPGSSSINYNEKFKSKATLTVDTSSSTAYMQLSSLTSDDSAVYYCSRTIYNYGSSGYNYAMDYWGQGTSVIVSS
VL: MESQTLVFISILLWLYGSDGNIVMTQSPKSMSMSVGERVTLSCKASENVGNSVSWYQQKAEQSPKPLIYGASNRYTGVPDRFTGSGSATDFTLTISSVQAEDLADYHCGQSYSYPYTFGGGTKLEIKRA
modifications: Heavy chain variable of #1G5; Light chain variable of #1G5
B3: #4C12: anti-LPS O11 monoclonal antibody prepared using pJON mIgG2a-hIgG1 and pJON mIgκ; variable regions SEQ ID NO: 24 and 20 (antibody, V domains shown)
VH: MGWSCIILFLVAAATGVQSQVQLQQPGAELVKPGASVKLSCKASGYTFTTYWINWMQQRPGQGLEWIGNIYPGTRSSNYNEKFKNKATLTVDTSSSTAYMQLNSLTSDDSAVYYCTRVYYDHVGYYFDYWGQGTTLTVSS
VL: MESQTLVFISILLWLYGADGNIVMTQSPKSMSMSVGERVTLSCKASENVGVSVSWYQQKPEQSPKLLIYGASNRCTGVPDRFTGSRSATDFTLTVSNVQAEDLADYHCGQSYSYPYTFGGGTRLEIKRA
modifications: Heavy chain variable of #4C12; Light chain variable of #4C12

How the values were obtained:
[1] = tested on: Pseudomonas aeruginosa clinical isolates No. 12 and No. 31; assay: Minimum inhibitory concentration of LVFX against clinical isolates; format: cell-based
[2] = tested on: Pseudomonas aeruginosa ATCC 29260; assay: Opsonophagocytic killing activity against Pseudomonas aeruginosa ATCC 29260; format: cell-based; conditions: antibody culture supernatant samples
Protocol: As a buffer for measurement, 0.1% gelatin/1% FBS/Hank's balanced salt solution (opsonization buffer) was prepared. HL60 as effector cells were cultured in 10% FBS-containing RPMI 1640 (Invitrogen) supplemented with 0.8% N,N-dimethylformamide for 5 or 6 days to prepare neutrophil-like, differentiated HL60 in an opsonization buffer. As the target bacteria, Pseudomonas aeruginosa ATCC 29260 cultured on MHA was prepared by suspending it in the opsonization buffer. As a complement, Baby Rabbit Serum (Cederlane) was prepared by dissolving it with ice-cold distilled water. Bacterial suspension (final concentration of 2×10^4 cells/ml) was mixed with antibody culture supernatant or purified antibody, allowed to stand at 4° C. for 30 minutes, and the prepared neutrophil-like, differentiated HL60 cells (final concentration of 4×10^6 cells/ml) and a complement (final concentration 10%) were added thereto, followed by incubation with gentle agitation at 37° C. for 1 hour under 5% CO2. After the incubation, each sample was spread on MHA, and colonies were counted on the next day.
Opsonophagocytic killing activity of each of cNo.76, c#1G5M, c#1G5, c#4C13KM, c#4C13, Meiji 1640, Meiji 1656, and 1BO11 hIgG1 against Pseudomonas aeruginosa ATCC 29260 was measured in accordance with the method of 1)-3-2. The opsonophagocytic killing activity was expressed in terms of 50% minimum growth inhibitory concentration.
In accordance with the method of 1)-3-2, the opsonophagocytic killing activities of h#1G5-H2/L2, h#1G5-H3/L3, h#4C13K-H2/L2, and h#4C13k-H3/L3 against ATCC 29260 were measured, and then compared to those of c#1G5 and c#4C13. The opsonophagocytic killing activity was expressed in terms of 50% minimum growth inhibitory concentration.

Molecule | MIC ([1]; No. 12 strain) [µg/mL] | MIC ([1]; strain No. 31) [µg/mL] | opsonophagocytic killing activity in screening [2]
C[C@H]1COc2c(N3CCN(C)CC3)c(F)cc3c(=O)c(C(=O)O)cn1c23 [LVFX, levofloxacin] | > 128 | 32 (≈ 88.6 µM) | –
B1 | – | – | strong opsonophagocytic killing activity
B2 | – | – | strong opsonophagocytic killing activity
B3 | – | – | strong opsonophagocytic killing activity
